In series [1] the target is CYP52A5A, omega-hydroxylating cytochrome P450 of Candida tropicalis (Candida tropicalis). The series is described as follows: cell-based or functional assay.
For series [2], the target named is cytochrome c. In words: cell-based or functional assay.
Series [3] deals with cytochrome c.
For series [4], the target named is CYP52A5A, omega-hydroxylating cytochrome P450 of Candida tropicalis.

Where “and” joins values, the source holds several entries; their conditions need not be identical. Equal values may be shown once.

With “truncated (soluble) CPRA from Candida tropicalis, produced in Sf9 insect cells (from UniProt P37201 33-680) (enzyme)”, in series [1], the Enhancement (%) of hydroxylation of C14 myristic acid, 4 µl sCPR added came to 2.4%; the Enhancement (%) of hydroxylation of C14 myristic acid, 8 µl sCPR added came out at 3.4%; the Enhancement (%) of hydroxylation of C14 myristic acid, 16 µl sCPR added was determined as 3.4%; the Enhancement (%) of hydroxylation of C14 myristic acid, 32 µl sCPR added turned out to be 8.1%. Also, in series [1], the Enhancement (%) of hydroxylation of C14 myristic acid, 64 µl sCPR added worked out at 6.9%; the enhancement of formation of omega-hydroxylauric acid by CYP52A5A on addition of soluble CPR (TLC autoradiogram) was 4.4 fold; the increase of omega-hydroxylauric acid formation on addition of soluble CPR in the presence of membrane associated CPR is 6%; the omega-hydroxylauric acid (nmol), CYP52A5A microsomes with soluble CPR added worked out at 0.07 nmol. Besides, the omega-hydroxylauric acid (nmol), CYP52A5A/CPRA microsomes with soluble CPR added in series [1] was 0.115 nmol. Further, in series [2], the Sp. Act. (reduction of cytochrome c), soluble fraction of Sf9 cells expressing truncated (soluble) CPRA was 8.42 µmol/min/mg and 4.4 µmol/min/mg; the specific activity (reduction of cytochrome c) relative to microsomes of cells expressing the unmodified CPR came to 20 fold.

B1: polyhistidine tagged soluble CPRA from Candida tropicalis, produced in E. coli (pET15b) (protein)
chain: MHHHHHHSSGLVPRGSHMDTGFLNTDSGSNSRDVLLTLKKNNKNTLLLFGSQTGTAEDYANKLSRELHSRFGLKTMVADFADYDWDNFGDITEDILVFFIVATYGEGEPTDNADEFHTWLTEEADTLSTLKYTVFGLGNSTYEFFNAIGRKFDRLLSEKGGDRFAEYAEGDDGTGTLDEDFMAWKDNVFDALKNDLNFEEKELKYEPNVKLTERDDLSAADSQVSLGEPNKKYINSEGIDLTKGPFDHTHPYLARITETRELFSSKDRHCIHVEFDISESNLKYTTGDHLAIWPSNSDENIKQFAKCFGLEDKLDTVIELKALDSTYTIPFPTPITYGAVIRHHLEISGPVSRQFFLSIAGFAPDEETKKAFTRLGGDKQEFAAKVTRRKFNIADALLYSSNNAPWSDVPFEFLIENVPHLTPRYYSISSSSLSEKQLINVTAVVEAEEEADGRPVTGVVTNLLKNVEIVQNKTGEKPLVHYDLSGPRGKFNKFKLPVHVRRSNFKLPKNSTTPVILIGPGTGVAPLRGFVRERVQQVKNGVNVGKTLLFYGCRNSNEDFLYKQEWAEYASVLGENFEMFNAFSRQDPSKKVYVQDKILENSQLVHELLTEGAIIYVCGDASRMARDVQTTISKIVAKSREISEDKAAELVKSWKVQNRYQEDVW
On to B1, for which, in series [3], the Sp. Act. (reduction of cytochrome c), E. coli extract came out at 5.3 µmol/min/mg and the Sp. Act. (reduction of cytochrome c), concentrated & dialyzed purified protein is 420 µmol/min/mg.

B2: full-length, membrane associated CPRA (NADPH-cytochrome P450 reductase) from Candida tropicalis (protein)
chain: MALDKLDLYVIITLVVAVAAYFAKNQFLDQPQDTGFLNTDSGSNSRDVLLTLKKNNKNTLLLFGSQTGTAEDYANKLSRELHSRFGLKTMVADFADYDWDNFGDITEDILVFFIVATYGEGEPTDNADEFHTWLTEEADTLSTLKYTVFGLGNSTYEFFNAIGRKFDRLLSEKGGDRFAEYAEGDDGTGTLDEDFMAWKDNVFDALKNDLNFEEKELKYEPNVKLTERDDLSAADSQVSLGEPNKKYINSEGIDLTKGPFDHTHPYLARITETRELFSSKDRHCIHVEFDISESNLKYTTGDHLAIWPSNSDENIKQFAKCFGLEDKLDTVIELKALDSTYTIPFPTPITYGAVIRHHLEISGPVSRQFFLSIAGFAPDEETKKAFTRLGGDKQEFAAKVTRRKFNIADALLYSSNNAPWSDVPFEFLIENVPHLTPRYYSISSSSLSEKQLINVTAVVEAEEEADGRPVTGVVTNLLKNVEIVQNKTGEKPLVHYDLSGPRGKFNKFKLPVHVRRSNFKLPKNSTTPVILIGPGTGVAPLRGFVRERVQQVKNGVNVGKTLLFYGCRNSNEDFLYKQEWAEYASVLGENFEMFNAFSRQDPSKKVYVQDKILENSQLVHELLTEGAIIYVCGDASRMARDVQTTISKIVAKSREISEDKAAELVKSWKVQNRYQEDVW
Take B2: in series [4], the net counts in product (omega-hydroxylation of [14C]-lauric acid), CYP52A5A/CPRA microsomes without soluble CPR worked out at 12400 net counts.

B3: truncated (soluble) CPRA from Candida tropicalis, produced in Sf9 insect cells (protein)
chain: MDTGFLNTDSGSNSRDVLLTLKKNNKNTLLLFGSQTGTAEDYANKLSRELHSRFGLKTMVADFADYDWDNFGDITEDILVFFIVATYGEGEPTDNADEFHTWLTEEADTLSTLKYTVFGLGNSTYEFFNAIGRKFDRLLSEKGGDRFAEYAEGDDGTGTLDEDFMAWKDNVFDALKNDLNFEEKELKYEPNVKLTERDDLSAADSQVSLGEPNKKYINSEGIDLTKGPFDHTHPYLARITETRELFSSKDRHCIHVEFDISESNLKYTTGDHLAIWPSNSDENIKQFAKCFGLEDKLDTVIELKALDSTYTIPFPTPITYGAVIRHHLEISGPVSRQFFLSIAGFAPDEETKKAFTRLGGDKQEFAAKVTRRKFNIADALLYSSNNAPWSDVPFEFLIENVPHLTPRYYSISSSSLSEKQLINVTAVVEAEEEADGRPVTGVVTNLLKNVEIVQNKTGEKPLVHYDLSGPRGKFNKFKLPVHVRRSNFKLPKNSTTPVILIGPGTGVAPLRGFVRERVQQVKNGVNVGKTLLFYGCRNSNEDFLYKQEWAEYASVLGENFEMFNAFSRQDPSKKVYVQDKILENSQLVHELLTEGAIIYVCGDASRMARDVQTTISKIVAKSREISEDKAAELVKSWKVQNRYQEDVW
In series [4], B3 registered a Conversion (%) of C14 myristic acid, 4 µl sCPR added to CYP52A5A microsomes of 12.4%; a Conversion (%) of C14 myristic acid, 8 µl sCPR added to CYP52A5A microsomes of 13.4%; a Conversion (%) of C14 myristic acid, 16 µl sCPR added to CYP52A5A microsomes of 13.4%; a Conversion (%) of C14 myristic acid, 32 µl sCPR added to CYP52A5A microsomes of 18.1%. Further, in series [4], the Conversion (%) of C14 myristic acid, 64 µl sCPR added to CYP52A5A microsomes worked out at 16.9%; the “hydroxylation activity on addition of soluble CPR” value was “increased the hydroxylation activity approximately 5-fold”; the net counts in product (omega-hydroxylation of [14C]-lauric acid), CYP52A5A microsomes with soluble CPR added came out at 7930 net counts; the net counts in product (omega-hydroxylation of [14C]-lauric acid), CYP52A5A/CPRA microsomes with soluble CPR added was 13200 net counts.

B4: soluble CPRA from Candida tropicalis produced in E. coli (pProEX-1), his-tag removed with TEV protease (protein)
chain: DTGFLNTDSGSNSRDVLLTLKKNNKNTLLLFGSQTGTAEDYANKLSRELHSRFGLKTMVADFADYDWDNFGDITEDILVFFIVATYGEGEPTDNADEFHTWLTEEADTLSTLKYTVFGLGNSTYEFFNAIGRKFDRLLSEKGGDRFAEYAEGDDGTGTLDEDFMAWKDNVFDALKNDLNFEEKELKYEPNVKLTERDDLSAADSQVSLGEPNKKYINSEGIDLTKGPFDHTHPYLARITETRELFSSKDRHCIHVEFDISESNLKYTTGDHLAIWPSNSDENIKQFAKCFGLEDKLDTVIELKALDSTYTIPFPTPITYGAVIRHHLEISGPVSRQFFLSIAGFAPDEETKKAFTRLGGDKQEFAAKVTRRKFNIADALLYSSNNAPWSDVPFEFLIENVPHLTPRYYSISSSSLSEKQLINVTAVVEAEEEADGRPVTGVVTNLLKNVEIVQNKTGEKPLVHYDLSGPRGKFNKFKLPVHVRRSNFKLPKNSTTPVILIGPGTGVAPLRGFVRERVQQVKNGVNVGKTLLFYGCRNSNEDFLYKQEWAEYASVLGENFEMFNAFSRQDPSKKVYVQDKILENSQLVHELLTEGAIIYVCGDASRMARDVQTTISKIVAKSREISEDKAAELVKSWKVQNRYQEDVW
As to B4, the “specific activity in reduction of cytochrome c” value in series [3] is reported as 198 U/mg.

The record behind these values is patent US20030119145A1.
